Laboratory results from publication PMC10992996, “Human CRB1 and CRB2 form homo- and heteromeric protein complexes in the retina” (Life Science Alliance, 2024).

Target: T1, CRB1-FLAG p.Y1161C (human, UniProt P82279 26-1406, p.Y1161C)
T1 construct: Crumbs homolog 1, canonical form, human, cDNA NM_202153 as printed, with a patient missense mutation; Made by site-directed mutagenesis of m1; also called CRB1 p.Y1161C; CRB1-FLAG MT; source: HEK293T, transfected, in lysate; not shown: Strep-Strep-FLAG, N-terminal, kept
T1 sequence (looked up): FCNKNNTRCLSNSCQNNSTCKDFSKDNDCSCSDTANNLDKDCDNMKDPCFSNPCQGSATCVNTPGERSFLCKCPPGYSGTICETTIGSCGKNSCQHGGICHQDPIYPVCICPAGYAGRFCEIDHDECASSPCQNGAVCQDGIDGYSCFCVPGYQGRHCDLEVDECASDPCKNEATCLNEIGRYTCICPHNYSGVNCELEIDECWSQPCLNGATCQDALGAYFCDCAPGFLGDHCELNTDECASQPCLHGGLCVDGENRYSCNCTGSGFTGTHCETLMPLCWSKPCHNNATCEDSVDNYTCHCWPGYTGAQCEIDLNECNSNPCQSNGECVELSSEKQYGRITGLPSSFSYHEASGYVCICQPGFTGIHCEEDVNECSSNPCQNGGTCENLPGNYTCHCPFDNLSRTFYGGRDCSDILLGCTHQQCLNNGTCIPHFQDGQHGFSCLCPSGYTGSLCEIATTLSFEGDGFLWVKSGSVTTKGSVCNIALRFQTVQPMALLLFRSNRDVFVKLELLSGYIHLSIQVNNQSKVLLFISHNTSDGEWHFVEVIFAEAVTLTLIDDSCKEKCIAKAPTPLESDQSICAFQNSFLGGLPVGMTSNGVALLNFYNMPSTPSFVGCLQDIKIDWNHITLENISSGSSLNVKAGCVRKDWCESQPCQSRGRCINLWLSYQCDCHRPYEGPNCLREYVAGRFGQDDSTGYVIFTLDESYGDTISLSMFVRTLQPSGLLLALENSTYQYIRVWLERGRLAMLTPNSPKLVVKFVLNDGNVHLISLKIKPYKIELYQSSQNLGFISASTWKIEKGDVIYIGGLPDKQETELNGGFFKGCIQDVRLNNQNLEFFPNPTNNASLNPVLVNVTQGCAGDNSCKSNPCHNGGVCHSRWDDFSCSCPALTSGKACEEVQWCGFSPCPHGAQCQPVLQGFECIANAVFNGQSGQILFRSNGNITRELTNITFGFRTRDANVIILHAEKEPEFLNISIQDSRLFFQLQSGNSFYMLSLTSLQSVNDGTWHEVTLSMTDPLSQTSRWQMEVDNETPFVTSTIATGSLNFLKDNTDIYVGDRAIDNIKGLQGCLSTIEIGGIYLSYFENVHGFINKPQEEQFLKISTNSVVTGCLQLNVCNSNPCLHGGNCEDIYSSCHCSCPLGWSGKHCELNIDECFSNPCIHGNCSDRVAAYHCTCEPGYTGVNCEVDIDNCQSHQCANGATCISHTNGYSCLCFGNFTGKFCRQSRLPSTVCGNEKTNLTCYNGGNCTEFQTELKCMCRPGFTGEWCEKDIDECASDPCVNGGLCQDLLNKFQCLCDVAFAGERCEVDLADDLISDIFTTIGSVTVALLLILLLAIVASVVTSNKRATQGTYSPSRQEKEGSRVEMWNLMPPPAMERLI
Test: co-IP; HEK293T cells co-transfected pairwise with a FLAG and an HA construct, 48 h; lysis in TBS (30 mM Tris-HCl pH 7.4, 150 mM NaCl) with 0.5% Nonidet P40; FLAG-IP on ANTI-FLAG M2 Affinity Gel 60-90 min at 4°C, elution with FLAG peptide; Western blot with HA and FLAG antibodies; for mutants HA/FLAG signal in eluates relative to WT, three biological replicates
Conditions: partners not purified

percent reduction of the interaction relative to CRB1 WT: 11%
B1: Human canonical CRB2 (Crumbs homolog 2) (natural protein)
chain: not shown
notes: Crumbs homolog 2, human, cDNA NM_173689; Stood as bait (FLAG copy) and as prey (HA copy) in the pairwise co-IP matrix; each copy carries only one of the two tags; The FLAG copy was the bait of the mass spectrometry pull-downs; also called CRB2-FLAG; CRB2-HA; source: HEK293T, transfected, in lysate (co-IP); HEK293T, transfected, FLAG-IP on beads, washed and purified with 0.01% SDS (retina …)
